The supplement of paper PMC10065799, “High-throughput profiling of sequence recognition by tyrosine kinases and SH2 domains using bacterial peptide display” (eLife, 2023)

What was measured:
AncSZ = test: phosphorylation enrichment, bacterial display (enrichment ratio); higher = better substrate or ligand; peptides without Tyr show the background
EPHB1 = EPHB1 (UniProt P54762); test: as above
EPHB2 = EPHB2 (UniProt P29323); test: as above
FGFR1 = FGFR1 (UniProt P11362); test: as above
FGFR3 = FGFR3 (UniProt P22607); test: as above
Sequence of FGFR3 (P22607 whole entry, looked up): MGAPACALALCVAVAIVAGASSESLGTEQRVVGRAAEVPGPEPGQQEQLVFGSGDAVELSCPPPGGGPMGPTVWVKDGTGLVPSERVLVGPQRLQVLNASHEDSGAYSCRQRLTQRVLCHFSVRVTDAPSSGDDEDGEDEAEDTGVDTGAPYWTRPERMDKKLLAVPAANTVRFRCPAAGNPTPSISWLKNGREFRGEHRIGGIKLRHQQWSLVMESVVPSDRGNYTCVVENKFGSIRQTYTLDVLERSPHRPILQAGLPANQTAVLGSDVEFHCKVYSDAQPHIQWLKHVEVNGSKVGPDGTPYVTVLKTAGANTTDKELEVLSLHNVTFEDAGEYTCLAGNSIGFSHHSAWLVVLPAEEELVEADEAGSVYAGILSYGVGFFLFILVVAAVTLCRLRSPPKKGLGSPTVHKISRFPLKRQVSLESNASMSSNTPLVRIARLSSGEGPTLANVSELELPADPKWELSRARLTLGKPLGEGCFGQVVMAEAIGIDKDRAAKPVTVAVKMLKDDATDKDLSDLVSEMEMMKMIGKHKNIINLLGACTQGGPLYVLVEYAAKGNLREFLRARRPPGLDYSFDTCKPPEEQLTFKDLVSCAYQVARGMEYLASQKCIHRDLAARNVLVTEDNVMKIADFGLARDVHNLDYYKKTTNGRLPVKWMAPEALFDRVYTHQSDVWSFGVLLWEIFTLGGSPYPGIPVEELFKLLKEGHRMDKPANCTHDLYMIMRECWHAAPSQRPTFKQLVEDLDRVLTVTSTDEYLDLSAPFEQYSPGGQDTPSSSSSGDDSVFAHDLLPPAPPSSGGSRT

Fer (mouse) = test: as above
Fes = Fes (UniProt P07332); test: as above
Sequence of Fes (P07332 whole entry, looked up): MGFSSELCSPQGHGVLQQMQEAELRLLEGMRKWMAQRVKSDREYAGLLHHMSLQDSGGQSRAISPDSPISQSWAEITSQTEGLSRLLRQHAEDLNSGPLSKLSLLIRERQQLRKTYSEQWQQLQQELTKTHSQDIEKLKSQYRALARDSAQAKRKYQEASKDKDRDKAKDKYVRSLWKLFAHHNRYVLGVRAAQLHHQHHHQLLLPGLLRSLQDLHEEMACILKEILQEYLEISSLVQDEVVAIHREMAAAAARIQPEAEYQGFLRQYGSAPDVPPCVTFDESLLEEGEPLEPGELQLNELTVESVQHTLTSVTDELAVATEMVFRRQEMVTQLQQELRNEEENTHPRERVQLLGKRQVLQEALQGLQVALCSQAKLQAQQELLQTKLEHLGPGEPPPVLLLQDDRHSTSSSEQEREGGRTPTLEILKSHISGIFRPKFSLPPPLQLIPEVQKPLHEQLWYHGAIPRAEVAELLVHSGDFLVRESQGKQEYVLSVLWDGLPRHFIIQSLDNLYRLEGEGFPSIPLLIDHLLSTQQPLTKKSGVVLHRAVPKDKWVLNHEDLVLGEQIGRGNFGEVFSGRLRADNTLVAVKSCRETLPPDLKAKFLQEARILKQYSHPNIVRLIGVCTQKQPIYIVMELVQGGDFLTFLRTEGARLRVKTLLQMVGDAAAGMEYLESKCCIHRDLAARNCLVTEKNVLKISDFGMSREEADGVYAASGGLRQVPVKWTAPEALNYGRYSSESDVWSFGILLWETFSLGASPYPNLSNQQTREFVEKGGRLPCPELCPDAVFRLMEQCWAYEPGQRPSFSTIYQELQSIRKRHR

Fyn = Fyn (UniProt P06241); test: as above
Sequence of Fyn (P06241 whole entry, looked up): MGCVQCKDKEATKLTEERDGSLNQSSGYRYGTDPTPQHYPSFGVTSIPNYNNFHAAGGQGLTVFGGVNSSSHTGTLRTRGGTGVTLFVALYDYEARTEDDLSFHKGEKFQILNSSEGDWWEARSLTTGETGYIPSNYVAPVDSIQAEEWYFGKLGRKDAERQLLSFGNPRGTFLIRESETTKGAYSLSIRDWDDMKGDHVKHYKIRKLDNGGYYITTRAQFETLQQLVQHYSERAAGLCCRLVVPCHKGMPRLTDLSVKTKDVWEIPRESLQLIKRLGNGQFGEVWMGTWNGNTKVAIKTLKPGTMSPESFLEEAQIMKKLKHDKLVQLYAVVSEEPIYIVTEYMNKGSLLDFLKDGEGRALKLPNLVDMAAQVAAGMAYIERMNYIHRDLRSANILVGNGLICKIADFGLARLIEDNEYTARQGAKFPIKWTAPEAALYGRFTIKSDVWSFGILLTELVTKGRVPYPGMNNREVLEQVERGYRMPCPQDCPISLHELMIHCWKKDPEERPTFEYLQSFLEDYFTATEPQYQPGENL

Hck = Hck (UniProt P08631); test: as above
Sequence of Hck (P08631 whole entry, looked up): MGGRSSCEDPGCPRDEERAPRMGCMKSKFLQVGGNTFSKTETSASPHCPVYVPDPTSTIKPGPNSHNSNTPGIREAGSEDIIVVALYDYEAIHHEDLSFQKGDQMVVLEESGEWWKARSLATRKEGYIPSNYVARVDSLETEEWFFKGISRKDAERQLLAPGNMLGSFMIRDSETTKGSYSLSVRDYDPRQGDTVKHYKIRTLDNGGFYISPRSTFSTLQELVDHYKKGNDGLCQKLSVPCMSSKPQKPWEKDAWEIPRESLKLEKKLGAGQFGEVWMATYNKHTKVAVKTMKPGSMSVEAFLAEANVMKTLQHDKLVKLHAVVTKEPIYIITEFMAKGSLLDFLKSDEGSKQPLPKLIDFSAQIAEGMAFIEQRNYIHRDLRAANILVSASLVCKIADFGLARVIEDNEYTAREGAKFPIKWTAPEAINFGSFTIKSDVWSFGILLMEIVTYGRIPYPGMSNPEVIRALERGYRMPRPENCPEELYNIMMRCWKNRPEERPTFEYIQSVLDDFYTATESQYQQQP

Jak2 = Jak2 (UniProt O60674); test: as above
MERTK = MERTK (UniProt Q12866); test: as above
c-Abl (mouse) = test: as above
c-Src = test: as above
Grb2 SH2 = Grb2 SH2 (UniProt P62993); test: SH2 binding enrichment of the phosphorylated peptide, bacterial display (enrichment ratio); higher = better substrate or ligand; peptides without Tyr show the background
SHP2-C SH2 = test: as above
c-Src SH2 = test: as above
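For SH2 binding enrichment of the phosphorylated peptide, bacterial display in this document: peptide library displayed on the E. coli surface as eCPX fusions, selected cells deep-sequenced, score is each peptide's frequency after selection divided by its frequency in the input.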
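For phosphorylation enrichment, bacterial display in this document: 11-residue human phosphosite peptides and single-mutation variants displayed on the E. coli surface, counted by deep sequencing, each peptide's frequency after selection divided by its frequency in the unselected input library; frequency after pTyr selection over input frequency; kinase dosed for 20-30% of maximal phosphorylation in three min.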

Sequence of FGFR1 (P11362 whole entry, looked up): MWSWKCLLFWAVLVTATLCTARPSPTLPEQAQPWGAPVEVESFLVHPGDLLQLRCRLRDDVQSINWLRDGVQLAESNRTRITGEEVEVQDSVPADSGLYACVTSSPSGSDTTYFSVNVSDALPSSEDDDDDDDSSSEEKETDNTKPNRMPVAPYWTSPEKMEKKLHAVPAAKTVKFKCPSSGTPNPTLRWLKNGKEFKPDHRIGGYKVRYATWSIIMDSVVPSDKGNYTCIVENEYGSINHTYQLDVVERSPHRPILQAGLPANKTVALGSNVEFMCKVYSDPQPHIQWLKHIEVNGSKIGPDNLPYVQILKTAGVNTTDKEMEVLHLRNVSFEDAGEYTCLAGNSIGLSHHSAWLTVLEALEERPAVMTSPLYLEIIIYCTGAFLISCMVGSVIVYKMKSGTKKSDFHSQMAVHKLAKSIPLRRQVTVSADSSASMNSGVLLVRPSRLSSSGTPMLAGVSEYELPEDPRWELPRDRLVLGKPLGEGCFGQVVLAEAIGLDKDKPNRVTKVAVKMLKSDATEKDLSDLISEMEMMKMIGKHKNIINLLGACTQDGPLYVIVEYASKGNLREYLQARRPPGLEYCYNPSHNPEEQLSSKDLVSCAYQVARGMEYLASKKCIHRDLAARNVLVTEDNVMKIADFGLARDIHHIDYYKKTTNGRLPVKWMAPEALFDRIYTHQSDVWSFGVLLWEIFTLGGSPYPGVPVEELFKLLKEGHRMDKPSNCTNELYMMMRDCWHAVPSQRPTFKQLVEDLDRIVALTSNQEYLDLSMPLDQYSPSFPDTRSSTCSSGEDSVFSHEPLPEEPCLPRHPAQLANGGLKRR
Sequence of EPHB1 (P54762 whole entry, looked up): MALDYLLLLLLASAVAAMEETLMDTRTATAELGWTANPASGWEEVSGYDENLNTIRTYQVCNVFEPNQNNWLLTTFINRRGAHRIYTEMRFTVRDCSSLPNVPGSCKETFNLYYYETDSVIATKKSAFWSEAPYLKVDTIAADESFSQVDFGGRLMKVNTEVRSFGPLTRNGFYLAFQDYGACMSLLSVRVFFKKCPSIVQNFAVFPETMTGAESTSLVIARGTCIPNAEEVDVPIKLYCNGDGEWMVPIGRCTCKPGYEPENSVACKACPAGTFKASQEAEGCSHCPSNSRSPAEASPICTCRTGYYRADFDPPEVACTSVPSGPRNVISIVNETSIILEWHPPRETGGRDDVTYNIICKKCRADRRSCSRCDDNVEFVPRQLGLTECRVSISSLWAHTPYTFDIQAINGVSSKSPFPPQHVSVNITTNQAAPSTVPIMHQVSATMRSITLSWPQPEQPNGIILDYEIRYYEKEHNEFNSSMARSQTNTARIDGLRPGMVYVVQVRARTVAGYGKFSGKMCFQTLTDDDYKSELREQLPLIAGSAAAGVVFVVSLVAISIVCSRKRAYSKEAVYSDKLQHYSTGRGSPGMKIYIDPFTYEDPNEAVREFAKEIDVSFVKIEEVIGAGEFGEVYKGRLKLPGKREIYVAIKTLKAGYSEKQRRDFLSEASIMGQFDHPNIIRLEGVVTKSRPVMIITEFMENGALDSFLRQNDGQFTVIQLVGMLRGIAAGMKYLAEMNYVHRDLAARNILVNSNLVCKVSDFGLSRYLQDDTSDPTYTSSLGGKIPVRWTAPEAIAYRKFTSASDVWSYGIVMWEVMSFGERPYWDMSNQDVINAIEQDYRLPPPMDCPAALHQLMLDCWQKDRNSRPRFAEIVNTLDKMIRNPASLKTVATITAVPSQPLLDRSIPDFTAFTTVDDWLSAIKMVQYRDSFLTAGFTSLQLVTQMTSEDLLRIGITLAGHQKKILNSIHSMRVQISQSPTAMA

Row | Sequence | SH2 binding enrichment (Grb2 SH2) | SH2 binding enrichment (SHP2-C SH2) | SH2 binding enrichment (c-Src SH2) | phosphorylation enrichment (AncSZ) | phosphorylation enrichment (EPHB1) | phosphorylation enrichment (EPHB2) | phosphorylation enrichment (FGFR1) | phosphorylation enrichment (FGFR3) | phosphorylation enrichment (Fer (mouse)) | phosphorylation enrichment (Fes) | phosphorylation enrichment (Fyn) | phosphorylation enrichment (Hck) | phosphorylation enrichment (Jak2) | phosphorylation enrichment (MERTK) | phosphorylation enrichment (c-Abl (mouse)) | phosphorylation enrichment (c-Src)
1 | QKDIFYGLRSL [IGSF10_Y126_T124I] | 0.9 | 1.14 | 0.516 | 0.894 | 0.672 | 0.616 | 0.515 | 0.73 | 0.405 | 1.29 | 0.783 | 0.676 | 1.12 | 0.844 | 1.03 | 0.923
2 | QKKPCYEIRWK [PDGFRB_Y562_R561C] | 1.55 | 2.56 | 1.73 | 1.43 | 0.958 | 1.48 | 0.914 | 2.08 | 1.02 | 1.03 | 0.983 | 1.02 | 0.653 | 0.67 | 0.652 | 0.361
3 | QKPLDYYRVNL [GALE_Y104] | 0.937 | 0.672 | 0.422 | 1.77 | 6.99 | 2.35 | 17.8 | 14.3 | 0.81 | 1.27 | 0.697 | 0.908 | 20.5 | 0.79 | 2.19 | 1.85
4 | QLAPQYTFAQG [FLNA_Y1761_YF] | 0.829 | 1.15 | 0.634 | 0.734 | 0.344 | 0.523 | 0.561 | 0.42 | 0.471 | 0.564 | 0.259 | 0.443 | 0.512 | 0.457 | 0.691 | 0.599
5 | QLLIEYPPEEV [ZZZ3_Y670_K669E] | 1.04 | 0.679 | 0.569 | 1.36 | 0.788 | 0.933 | 0.659 | 0.833 | 0.671 | 1.31 | 0.618 | 0.534 | 1.27 | 0.622 | 1.03 | 0.44
6 | QRRLIYRCQVG [NR2E3_Y81_R76Q] | 0.628 | 0.412 | 0.606 | 0.968 | 0.622 | 0.728 | 0.579 | 0.845 | 0.643 | 0.861 | 0.764 | 0.629 | 1.03 | 0.652 | 0.595 | 0.569
7 | QRRNVYFFSFL [PTEN_Y176_Y174N_YF] | 1.13 | 1.8 | 0.92 | 1.11 | 0.649 | 0.475 | 0.562 | 0.728 | 0.398 | 1.42 | 1.15 | 0.34 | 1.13 | 0.5 | 0.509 | 0.67
8 | QRRNVYYYSYL [PTEN_Y176_Y174N] | 0.955 | 1.27 | 1.58 | 1.72 | 5.79 | 3.05 | 16.4 | 11.6 | 2.77 | 1.41 | 9.83 | 7.54 | 8.42 | 16 | 1.15 | 8.15
9 | QTSTDYDIRFF [CSNK2A1_Y131_L128S_YF] | 1.15 | 0.864 | 0.477 | 2.12 | 1.27 | 1.22 | 0.667 | 1.41 | 0.809 | 1.81 | 1.43 | 0.968 | 1.61 | 0.688 | 1.18 | 0.892
10 | QWLEQYTQAIE [LSP1_Y234] | 0.876 | 0.574 | 0.709 | 1.4 | 0.579 | 0.623 | 0.489 | 0.589 | 0.473 | 1.15 | 0.596 | 0.699 | 0.924 | 0.37 | 10.2 | 0.406
11 | RCYVYYYSYLL [PTEN_Y177_R173C] | 0.668 | 0.51 | 0.407 | 1.42 | 0.82 | 0.936 | 1.35 | 1.64 | 0.86 | 2 | 0.787 | 1.08 | 2.13 | 1.01 | 1.71 | 1.36
12 | RDMNAYISPSP [MMAA_Y207_R209S] | 1.01 | 0.715 | 0.567 | 0.505 | 0.553 | 0.477 | 0.432 | 0.508 | 0.66 | 1.03 | 0.365 | 0.323 | 0.879 | 0.451 | 0.671 | 0.416
13 | REGAKYVSHGT [ASS1_Y113_A118T] | 0.808 | 0.706 | 0.566 | 0.73 | 0.513 | 0.587 | 0.493 | 0.482 | 0.375 | 0.969 | 0.363 | 0.37 | 0.898 | 0.663 | 0.517 | 0.411
14 | RELGKYGLQAY [ALDH2_Y497_E496K] | 1.15 | 0.564 | 0.455 | 0.683 | 0.403 | 0.402 | 0.426 | 0.47 | 0.475 | 0.72 | 0.464 | 0.455 | 0.543 | 0.457 | 0.581 | 0.356
15 | RESFKYFPSSL [CXXC1_Y218_YF] | 0.955 | 0.565 | 0.367 | 0.748 | 0.424 | 0.421 | 0.543 | 0.547 | 0.295 | 0.567 | 0.435 | 0.4 | 0.612 | 0.421 | 0.454 | 0.852
16 | RESFKYLPSSL [CXXC1_Y218_F219L_YF] | 0.919 | 0.455 | 0.353 | 0.561 | 0.512 | 0.395 | 0.329 | 0.431 | 0.347 | 0.862 | 0.469 | 0.381 | 0.837 | 0.286 | 0.567 | 0.429
17 | RFLERYIFNPE [HLA-DPB1_Y57_R61P_YF] | 3.06 | 0.835 | 0.794 | 1.27 | 0.892 | 0.666 | 0.46 | 0.624 | 0.627 | 1.25 | 0.557 | 0.51 | 1.39 | 0.521 | 1 | 0.804
18 | RFVSRYIFNRE [HLA-DQB1_Y62_T60S_YF] | 0.733 | 1.2 | 0.499 | 1.86 | 1.13 | 0.744 | 0.852 | 0.934 | 0.976 | 1.46 | 1.05 | 0.79 | 2.14 | 0.994 | 0.867 | 0.916

More lines, main results first:

Row | SH2 binding enrichment (Grb2 SH2) | SH2 binding enrichment (SHP2-C SH2) | SH2 binding enrichment (c-Src SH2) | Sequence | phosphorylation enrichment (AncSZ) | phosphorylation enrichment (EPHB1) | phosphorylation enrichment (EPHB2) | phosphorylation enrichment (FGFR1) | phosphorylation enrichment (FGFR3) | phosphorylation enrichment (Fer (mouse)) | phosphorylation enrichment (Fes) | phosphorylation enrichment (Fyn) | phosphorylation enrichment (Hck) | phosphorylation enrichment (Jak2) | phosphorylation enrichment (MERTK) | phosphorylation enrichment (c-Abl (mouse)) | phosphorylation enrichment (c-Src)
19 | 0.888 | 0.678 | 0.508 | QHVPDYRQNVF [PCDHGA1_Y890_YF] | 0.889 | 0.583 | 0.597 | 0.59 | 0.704 | 0.578 | 1.03 | 0.602 | 0.585 | 0.991 | 0.54 | 0.798 | 0.572
20 | 1.05 | 0.68 | 0.747 | QKPLDYFRVNL [GALE_Y104_YF] | 1.41 | 1 | 0.636 | 7.69 | 4.41 | 0.643 | 1.59 | 0.58 | 0.647 | 8.52 | 0.647 | 0.905 | 0.711
21 | 1.14 | 0.876 | 0.759 | QNTVDYFDLFG [PTPN11_Y62_G60V_YF] | 2.35 | 2.34 | 1.16 | 16.2 | 12.3 | 0.609 | 1.44 | 0.614 | 0.595 | 2.22 | 0.646 | 0.988 | 0.619
22 | 0.928 | 0.403 | 0.39 | QRASDYYSQQM [GBP6_Y333_A331S] | 0.825 | 0.66 | 0.589 | 1.36 | 1.22 | 0.453 | 0.754 | 0.574 | 0.788 | 0.805 | 0.558 | 0.486 | 0.58
23 | 1.01 | 1 | 1.36 | QRIHDYYEHRY [HCN4_Y554] | 1.25 | 1.17 | 1.23 | 15.7 | 9.67 | 0.903 | 0.974 | 0.657 | 0.825 | 0.794 | 0.433 | 0.445 | 0.478
24 | 1.04 | 1.72 | 0.603 | QYNMQYSSSAA [ERBB2IP_Y981_I979M] | 0.882 | 0.445 | 0.687 | 0.792 | 0.655 | 0.872 | 1.18 | 0.736 | 0.732 | 0.956 | 0.793 | 1.09 | 0.859
25 | 1.58 | 1.7 | 1.31 | RAILLYEFVGK [NATD1_Y45_V42I_YF] | 4.95 | 49.4 | 65.8 | 4.88 | 5.57 | 32.5 | 7.5 | 12.1 | 19.9 | 3.76 | 24.9 | 2.52 | 12.3
26 | 0.644 | 0.82 | 0.629 | RDHFGYRQSVT [CD55_Y245_YF] | 0.722 | 0.603 | 0.33 | 0.471 | 0.791 | 0.427 | 0.702 | 0.435 | 0.489 | 0.572 | 0.474 | 0.538 | 0.626
27 | 1.8 | 0.573 | 0.59 | RDLEQYVNNVN [PCDH19_Y1097] | 1.06 | 0.64 | 0.625 | 0.476 | 0.633 | 0.356 | 1.01 | 0.405 | 0.377 | 1.09 | 0.612 | 0.968 | 0.541
28 | 0.956 | 1.03 | 0.557 | REAAAYLHGRL [AGXT_Y297] | 0.891 | 0.322 | 0.571 | 0.671 | 0.595 | 0.502 | 1.03 | 0.543 | 0.479 | 1 | 0.584 | 1.04 | 0.655
29 | 0.728 | 0.637 | 1.14 | REENGYNTFAS [FGF10_Y161_I156R_YF] | 0.973 | 0.617 | 0.709 | 0.728 | 0.862 | 0.558 | 1 | 0.84 | 0.4 | 0.91 | 0.69 | 0.606 | 0.827
